Data: the RNAGym collection of RNA variant scans (doi:10.7554/elife.80360)

B1: HDV Ribozyme (parent)
chain: GGCCGGCAUGGUCCCAGCCUCCUCGCUGGCGCCGGCUGGGCAACAUUCCGAGGGGACCGUCCCCUCGGUAAUGGCGAAUGGGACCCA

Variants of: B1
Experiment: self-cleavage, relative activity (ratio to wild type); higher = more cleavage; co-transcriptional

Row | Variant | self-cleavage
1 | C7A C32G | 0
2 | G5C G82A | 0.123
3 | G6U A51U | 0.739
4 | C7A U9A | 0.431
5 | G5C U9A | 0.138
6 | C7A U47A | 0.697
7 | G6U G10C | 0.364
8 | G5C G68U | 0.0615
9 | G6C C86G | 0.131
10 | G5U G54U | 0.612
11 | G5U C64G | 0.161
12 | G5U C64U | 0.499
13 | C7A C48U | 0.542
14 | G5U C24U | 0.115
15 | G5U C24G | 0
16 | G5C C86G | 0.113
17 | G5C C86U | 0.172
18 | G6C C49G | 0.166
19 | C7A G81U | 0.116
20 | G5U A87G | 0.636
21 | G5U A87C | 0.277

Row | Variant | self-cleavage
22 | G5U C85G | 0.289
23 | G6U G29A | 0.102
24 | G6U G29C | 0.119
25 | C7G C13A | 0
26 | G6A C22G | 0.0739
27 | G5U U37A | 0.0723
28 | C7A C15G | 0.123
29 | G6A U72C | 0.219
30 | C7A G68A | 0.464
31 | G6A C15G | 0.133
32 | G6U C75U | 0.113
33 | G6U C75G | 0.145
34 | G6C A43G | 0
35 | G6U A42U | 0.095
36 | C7A G52A | 0.629
37 | G6C A8C | 0
38 | G6C A8G | 0.332
39 | G6U C63A | 0.594
40 | G6C U12A | 0
41 | G5C G80U | 0.124
42 | G6C G55A | 0.16

Row | Variant | self-cleavage
43 | G6A G11A | 0.128
44 | G6A A43C | 0.0489
45 | G6A A43G | 0.277
46 | G6U A77C | 0.332
47 | G6A G76U | 0.881
48 | G5C G74A | 0.0898
49 | G5U G55U | 0.394
50 | G6A C26A | 0.888
51 | G6A C84A | 0.431
52 | G5U G28U | 0.115
53 | G5U G28A | 0
54 | G5U A78C | 0.185
55 | G5U A78U | 0.0723
56 | G6C C24A | 0.138
57 | G6U G68C | 0.383
58 | G6U C64G | 0.388
59 | G5C U69C | 0.396
60 | G6C G31C | 0.399
61 | G6C G31A | 0.277
62 | G5C C84U | 0.119
63 | G6A U47C | 0.525

Row | Variant | self-cleavage
64 | G6A U47G | 1.01
65 | G5C G25U | 0.0475
66 | G6C U79G | 0
67 | G6U C61G | 0.707
68 | C7A C33U | 0.148
69 | G5U G34A | 0.0875
70 | G6A C21A | 0.0707
71 | G6U A8C | 0.447
72 | G6C G29U | 0.111
73 | G6C A71C | 0.0791
74 | C7A A78U | 0.0791
75 | C7A C18A | 0.0852
76 | G5U G6C | 0
77 | G5U G6U | 0
78 | G5U A77G | 0.227
79 | G5U C62G | 0.346
80 | G6U U47G | 0.554
81 | G6A C30G | 0.0678
82 | C7A G55A | 0.627
83 | G6C C61A | 0.161
